Results on one molecule are retold here after patent publication US20160219844A1 (published 2016).

This assay addresses T1, green fluorescent protein (GFP) peptide on H-2Kd (mouse).
T1 peptide: HYLSTQSAL
Briefly: multimer staining. An excerpt: FIG. 1 is a pair of graphs showing detection of GFP-specific CD8+ T cells in founder αGFP mice generated by somatic cell nuclear transfer (“SCNT”). Cells were collected from the lymph nodes of founder αGFP mice. The cells were stained for CD8 and an anti-H-2K^d-GFP₂₀₀₋₂₀₈ pentamer. Representative FACS is shown in all 14 founders. Note that these are founder mice and thus chimeric.

B1: GFP-specific T cell receptor (αGFP TCR) of SEQ ID NOs 2 and 4 (TCR, V domains shown)
Valpha: QQKVQQSPESLSVPEGGMASFNCTSSDRNFQYFWWYRQHSGEGPKALMSIFSDGDKKEGRFTAHLNKASLHVSLHIRDSQPSDSALYFCAASHDTNAYKVIFGKGTHLHVLP
Vbeta: DPKIIQKPKYLVAVTGSEKILICEQYLGHNAMYWYRQSAKKPLEFMFSYSYQKLMDNQTASSRFQPQSSKKNHLDLQITALKPDDSATYFCASSQGAGIYNSPLYFAAGTRLTVT
Consider B1, for which the binding result is “recognises”.
